Data on 11 molecules can be found in patent publication US20180237497A1 (CANCER RESEARCH TECHNOLOGY, published 2018).

In test [1] the target is T1, human IGF2^1-67 (mature insulin-like growth factor 2) (human, UniProt P01344 25-91, biotinylated (site not stated) where immobilised on the chip (Tables 1-4)).
T1 construct: mature; also called mature IGF2; biotinylated IGF2
The test can be described thus: SPR kinetic, Fc fusion captured by anti-human IgG, pH 7.4. How it is done:
(§1) SPR analysis of the interaction of recombinant IGF1 and IGF2 forms with Fc-domain 11 proteins immobilised by antibody capture (CM5 chip containing monoclonal mouse anti-human IgG antibody immobilised by amine coupling). Measurements were carried out at 25° C. in HBS-EP buffer (pH 7.4).
(§2) Final kinetic analysis of mutants by SPR was conducted using a Biacore T200 biosensor at 25° C. in either HBS-EP (10 mM HEPES pH 7.4, 150 mM NaCl, 3 mM EDTA, and 0.005% (v/v) surfactant P20) or MES-EP (20 mM MES pH 6.5, 150 mM NaCl, 3 mM EDTA, and 0.005% (v/v) surfactant P20) at a flow-rate of 40 μL min⁻¹. […] For the analysis of the Fc-domain 11^AB5 interaction, approximately 50 RU of a biotinylated IGF2:biotinylated ubiquitin mixture (1:8 proportion) was immobilized on the CM5-streptavidin chip. This interaction was also analysed by immobilizing the Fc-domain 11^AB5 and Fc-domain 11^AB5-RHH (or Fc-domain 11^I1572A as control) by Human Antibody Capture (monoclonal mouse anti-human IgG antibody immobilised on a CM5 chip by amine coupling, GE Healthcare) with and without human IgG1 Fc fragment (Bethyl Laboratories, UK) in the control flow cell. […] T200 BiaEvaluation software (GE Healthcare) was used to fit the resulting curves according to a 1:1 binding model. Steady state affinities were determined using the kinetic data, taking the response average at 5 seconds before injection end and for 5 seconds average. Thermodynamic data was performed across the temperature range of 10° C. to 30° C., van't Hoff and Erying plots generated and ΔH, −TΔS and ΔG values determined as previously described.

Test [2] concerns the target pro-IGF2^1-104 (UniProt P01344 25-128). The test is described as above. How it is done: as §1, §2
In test [3] the target is T2, pro-IGF2^1-156 (UniProt P01344 25-180).
T2 construct: range 1-156
The test is described as above. How it is done: as §1, §2

Test [4] deals with T1, human IGF2^1-67 (mature insulin-like …). Put plainly: SPR kinetic, biotin-IGF2 on chip. How it is done: as §2
(In general: Surface plasmon resonance follows binding to a sensor surface in real time, without labels.)

Test [5] shares this target. Put plainly: SPR steady state, biotin-IGF2 on chip. As to the method: as §2
The target is the same in test [6]. The test can be described thus: SPR kinetic, biotin-IGF2 on chip, pH 7.4.
From the text: (§3) Surface plasmon resonance (SPR) binding analysis of recombinant M6P/IGF2R domain 11 mutants interaction with IGF2. Kon indicates association (on) rate; koff, dissociation (off) rate; RU, response units. Binding to IGF2 assessed with BIAcore T200 using purified biotinylated IGF2 and IGF1 on a streptavidin biosensor chip. Recombinant proteins were expressed either in E. coli and/or P. pastoris. All the mutants in the FG and CD loops are on the domain 11^AB5 background for the AB loop unless otherwise stated. All experiments were carried out at 25° C. in HBS-EP buffer (pH 7.4), were repeated 2-5 times on two independent BIAcore chips. nd=not determined. Data for KD expressed as mean of each experiment, and means of kon and koff are shown.
as §2, with “average.” for “average. Thermodynamic data was performed across the temperature range of 10° C. to 30° C., van't Hoff and Erying plots generated and ΔH, −TΔS and ΔG values determined as previously described.”

Test [7] shares this target. Put plainly: SPR kinetic, biotin-IGF2 on chip, pH 6.5. How it is done: Measurements were carried out at 25° C. in MES-EP buffer, 20 mM MES pH 6.5, 150 mM NaCl, 3 mM EDTA, and 0.005% (v/v) surfactant P20). Data for KD expressed as mean of each experiment, and means of kon and koff are shown.
as §2

Test [8] shares this target. Put plainly: SPR steady state, biotin-IGF2 on chip, pH 7.4.
From the text: as §3
as §2, with “average.” for “average. Thermodynamic data was performed across the temperature range of 10° C. to 30° C., van't Hoff and Erying plots generated and ΔH, −TΔS and ΔG values determined as previously described.”

The target is the same in test [9]. Put plainly: SPR.
From the text: as §3
as §2, with “model.” for “model. Steady state affinities were determined using the kinetic data, taking the response average at 5 seconds before injection end and for 5 seconds average. Thermodynamic data was performed across the temperature range of 10° C. to 30° C., van't Hoff and Erying plots generated and ΔH, −TΔS and ΔG values determined as previously described.”

Test [10] shares this target. The test can be described thus: SPR kinetic, biotin-IGF2 on chip, pH 7.4. As to the method: as §2
The source holds these as a separate data set.

Test [11] shares this target. Put plainly: SPR steady state, biotin-IGF2 on chip, pH 7.4. As to the method:
as §2
This is another data set of the same source.

Where a chain is given by its changes, count along the chain named. Names and notes keep the numbering of the source.

T2 sequence (P01344 25-180 limits assumed): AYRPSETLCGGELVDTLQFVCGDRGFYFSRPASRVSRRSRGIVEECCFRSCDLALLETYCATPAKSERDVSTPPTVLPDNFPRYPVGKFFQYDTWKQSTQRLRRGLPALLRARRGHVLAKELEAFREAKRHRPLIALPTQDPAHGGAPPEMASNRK
Sequence of pro-IGF2^1-104 (P01344 25-128 limits assumed): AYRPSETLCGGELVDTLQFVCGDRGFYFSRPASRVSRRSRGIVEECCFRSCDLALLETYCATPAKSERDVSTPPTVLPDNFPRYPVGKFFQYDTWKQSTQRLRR
T1 sequence (P01344 25-91): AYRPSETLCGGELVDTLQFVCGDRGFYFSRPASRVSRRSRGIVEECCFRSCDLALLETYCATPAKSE

B1: Fc-domain 11^AB5-RHH (IGF2-TRAP) (Fc fusion, not shown: a dimerising Fc or GST)
chain: NEHDDCQVTNPSTGHLFDLSSLSGRAGFTAAYAKGWGVYMSICGENENCPPGVGACFGRTRISVGKANKRLRYVDQVLQLVYKDGSHCPSKHGLSYKSVISFVCRPEAGPTNRPMLISLDKQTCTLFFSWHTPLACEQAT
notes: RHH is not defined in words; read as Q1569R P1597H S1602H on AB5; IgG2 Fc is stated for the CHO product; also called IgG2 Fc-domain 11^AB5-RHH; Fc-domain 11^RHH
The Kd is the free concentration of one partner at which half of the binding sites on the other are occupied at equilibrium, for simple one-to-one binding. Broadly, the koff is a measure of how fast the partners let go of each other. Read a low koff as slow dissociation. A word on the kon: it is a measure of how fast the partners come together. A higher kon goes with faster complex formation. As for B1, the equilibrium dissociation constant (Kd) amounted to 0.54 nM in test [1], 0.39 nM in [2] and 1.13 nM in [3]. For the same molecule, the values for the koff in test [1], in test [2] and in test [3] were 0.0014 s⁻¹, 0.0005 s⁻¹ and 0.0003 s⁻¹, respectively. For the same molecule, the figures for the on-rate (kon) in [1], in test [2] and in [3] were 2.6e+06 M⁻¹ s⁻¹, 1.29e+06 M⁻¹ s⁻¹ and 230000 M⁻¹ s⁻¹, respectively.

B2: Fc-domain 11^I1572A fusion protein (Fc fusion)
chain: B1 chain with A33S, K34E, G35K, W36G, G37L, R59Q, I62A, H87P, H92S
notes: not shown: human IgG Fc
With B2, in test [2], the affinity, expressed as Kd, was 4.41 nM; the koff was determined as 0.002 s⁻¹; the kon worked out at 520000 M⁻¹ s⁻¹. In test [3], the Kd is 2.71 nM, the koff was 0.0008 s⁻¹ and the kon is 290000 M⁻¹ s⁻¹.

B3: IGF2R domain 11^WT (receptor)
chain: MKSNEHDDCQVTNPSTGHLFDLSSLSGRAGFTAAYSEKGLVYMSICGENENCPPGVGACFGQTRISVGKANKRLRYVDQVLQLVYKDGSPCPSKSGLSYKSVISFVCRPEAGPTNRPMLISLDKQTCTLFFSWHTPLACEQATECSV
notes: Soluble His6-tagged domain 11 from P. pastoris and/or E. coli; also called wild-type domain 11
Take B3: the dissociation constant Kd in [4] was 46 nM; in test [5], 64 nM; in test [6], 46 nM; in test [7], 35.1 nM; in test [8], 64 nM. Further, the koff was 0.23 s⁻¹ in test [4], 0.23 s⁻¹ in [6] and 0.144 s⁻¹ in test [7]. Besides, the figures for the kon in test [4], in test [6] and in test [7] were 5e+06 M⁻¹ s⁻¹, 5e+06 M⁻¹ s⁻¹ and 2.68e+06 M⁻¹ s⁻¹, respectively.

B4: domain 11^AB3 P1597K (receptor)
chain: B3 chain with E37K, K38S, L40V, P90K
notes: See m5
For B4, in test [9], the “fold change of KD against domain 11^AB3” value was 6 fold and the “fold reduction of koff against domain 11^AB3” value is 2 fold. Also, in test [10], the affinity, expressed as Kd, was 2.78 nM; the koff came out at 0.0287 s⁻¹; the on-rate constant (kon) stood at 1.05e+07 M⁻¹ s⁻¹. Moreover, the dissociation constant Kd in [11] was 3.59 nM.

B5: domain 11^WT + 312G (HI-VKLM) (receptor)
chain: B3 chain with D123V, Q125L, T126M
notes: See m5; Protein quality poor
For the molecule B5, in test [4], the Kd was determined as 119 nM, the koff was determined as 0.15 s⁻¹ and the kon came to 1.07e+06 M⁻¹ s⁻¹. The same molecule showed a dissociation constant Kd in test [5] of 135 nM.

B6: domain 11^AB5 W1546F (receptor)
chain: B3 chain with S36A, E37K, K38G, G39F, L40G
notes: See m5
In the case of B6, the “fold reduction of koff” value in test [9] worked out at 2 fold. Further, in test [6], binding was characterised by a dissociation constant (Kd) of 4.35 nM, the off-rate (koff) stood at 0.018 s⁻¹ and the kon is 4.5e+06 M⁻¹ s⁻¹. The same molecule had a Kd in test [8] of 5 nM.

B7: domain 11^AB5 + 51F (HI-NRQS) (receptor)
chain: B3 chain with S36A, E37K, K38G, G39W, L40G, D123N, K124R, T126S
notes: See m5; Protein quality poor
In test [4], B7 gave an equilibrium dissociation constant (Kd) of 13.5 nM, a koff of 0.1 s⁻¹ and a kon of 7.4e+06 M⁻¹ s⁻¹. For the same molecule, binding in test [5] was characterised by a dissociation constant (Kd) of 6.94 nM.

B8: IGF2R domain 11^AB3 (receptor)
chain: B3 chain with E37K, K38S, L40V
notes: His6-tagged soluble domain 11; also called domain 11^E1544K, K1545S, L1547V; 1542YSKSGV1547
As for B8, the Kd worked out at 15.3 nM in test [4]; 15.5 nM in [5]; 15.3 nM in [6]; 15.3 nM in test [10]; 11.8 nM in test [7]; 15.5 nM in [8]. Besides, the Kd in test [11] worked out at 15.5 nM. In addition, the koff in test [4] turned out to be 0.044 s⁻¹; in test [6] it was 0.044 s⁻¹; in test [10] it was 0.044 s⁻¹; in [7], 0.0381 s⁻¹. The on-rate constant (kon) is 2.76e+06 M⁻¹ s⁻¹ in test [4], 2.76e+06 M⁻¹ s⁻¹ in [6], 2.76e+06 M⁻¹ s⁻¹ in [10] and 3.43e+06 M⁻¹ s⁻¹ in test [7].

B9: domain 11^WT + 23D (HI-HFQS) (receptor)
chain: B3 chain with D123H, K124F, T126S
notes: See m5; Protein quality poor based on absorption spectra
As for B9, in test [4], the affinity, expressed as Kd, was 176 nM; the dissociation rate constant (koff) is 0.065 s⁻¹; the on-rate (kon) is 250000 M⁻¹ s⁻¹. This molecule also registered a Kd in test [5] of 220 nM.

B10: domain 11^WT + 27G (HI-NMAL) (receptor)
chain: B3 chain with D123N, K124M, Q125A, T126L
notes: See m5; Protein quality poor
In test [4], B10 returned a Kd of 195 nM, a dissociation rate constant (koff) of 0.25 s⁻¹ and a kon of 2e+06 M⁻¹ s⁻¹. Further, binding in test [5] was put at a Kd of 194 nM.

B11: domain 11^WT + 26C (HI-DMQT) (receptor)
chain: B3 chain with K124M
notes: See m5; Protein quality poor
As for B11, in test [4], the dissociation constant Kd stood at 130 nM, the koff amounted to 0.24 s⁻¹ and the association rate constant (kon) is 1.89e+06 M⁻¹ s⁻¹. Further, in test [5], the Kd stood at 127 nM.
